# Source: patent publication US8629241B2, “Alpha helical mimics, their uses and methods for their production” (The University of Queensland, priority 2004, dated 2014)
# Like-named read-outs stand apart in the source and are kept apart here. Where a SMILES comes first, the peptide text is derived from it. Bridges are numbered along the chain shown (N, C = ends). Where no end group is shown, it is not given here. [ ]: non-standard residue; d: D form. NPhGly = O=C(O)CNc1ccccc1
# Tests used:
# trypsin = assay: Proteolytic stability of the helix, trypsin digestion (Example 10); assay type: in vitro ADME; details: pH 8.2, room temperature, 1 to 155 minutes
# Description: A standard solution of Ac—KARAD-NH2 and Ac—(cyclo-1,5)-KARAD-NH2 (1 mg/mL) was prepared in 100 mM ammonium carbonate buffer at pH˜8.2. To 100 μL of each solution was added 1 mg/mL of trypsin (1 μL). The digest was conducted at room temperature with 5 μL aliquots taken at 1, 4, 8, 28, 48, 55, 110, 155 minutes. Aliquots were diluted with 5 μL of 3% TFA to stop the reaction. and analyzed by LC-MS using 2.1×150 mm Phenomenex 300 Å C18 5 μm column, with a 3% per minute linear gradient of 0-60% acetonitrile over 20 minutes. The amount of starting material left in each sample was quantified by determination of total ion counts for the molecular ion.
# Compound of SEQ ID NO 8 and its acyclic version SEQ ID NO: 14 were incubated with trypsin (pH 8.2), aliquots removed at intervals between 1 and 155 minutes, and analyzed by LCMS. […] Similarly the cyclic compound 8 was not degraded by human serum (1 h, 37° C.). […] This is consistent with other observations that only an extended or linear peptide conformation is recognized, not only by trypsin, but by all proteolytic enzymes^125 Presumably the cycle is too tightly locked into an alpha helical turn to permit significant unwinding to the extended format needed for recognition by trypsin.
# [1] = assay type: physicochemical; details: for θ222/θ208 / [θ]192 / [θ]208 / [θ]222: Table 8; for [θ]192 / [θ]208 / [θ]222: one or more cyclic pentapeptide modules versus linear peptides; for % helicity: fH × 100, [θ∞H]222 = −44000, k = 2.6; for [θ]207: molar elipticity at 207 nm; for helicity by CD compared to native agonist and antagonist sequences: versus F/Nphe-[…], FIG. 12
# Description: Circular Dichroism (CD) was performed on peptides having SEQ ID NOs: 8 to 14 and 18 to 31, using methods described above. The molar elipticities at 222 nm, 208 nm and 190 nm, ratios of elipticities at 222 nm/208 nm and relative helicity are shown in Tables 6 and 7.
# Assuming that mean alpha helix content (fH) is linearly related to elipticity at 222 nm, or in our case 215 nm ([θ]obs215), then the equation for calculating helix content is: fH=([θ]obs215−[θ]C)/([θ]∞215−[θ]C) (1) Luo and Baldwin^22 determined that the random coil ([θ]C) and infinite alpha helix ([θ]∞222) molar elipticities are temperature dependent based on the equations: [θ]C=2220−53T (2a) [θ]∞215=(−44000+250T)(1−k/Np) (2b) where T is temperature in degrees Celsius, Np is the number of peptide units, and k is a finite length correction.
# CD was performed on peptides having one [SEQ ID NO: 8] or more than one modular macrocycle [SEQ ID NOs: 46 and 47], as compared with corresponding linear peptides, Ac[KARAD]n—NH2 where n=1 [SEQ ID NO: 14], n=2 [SEQ ID NO: 54] and n=3 [SEQ ID NO: 55]. The molar elipticities at 222 nm, 208 nm and 190 nm, ratios of elipticities at 222 nm/208 nm and percentage helicity are shown in Table 8.
# CD experiments were performed on a Jasco Model J-710 spectropolarimeter which was routinely calibrated with (1S)-(+)-10-camphorsulfonic acid. Temperature control was achieved using a Neslab RTE-111 circulating water bath. Spectra were recorded in a 0.1 cm Jasco cell between 310-185 nm at 50 nm/min with a band width of 1.0 nm, response time of 2 sec, resolution step width of 0.1 nm and sensitivity of 20, 50 or 100 mdeg. Each spectrum represents the average of 5 scans with smoothing to reduce noise. Peptide samples for CD spectroscopy were dissolved in distilled water (˜1 mg/mL). Each stock solution was diluted to a final concentration of 50 μM in 10 mM sodium phosphate buffer (pH7.4), with or without additives (2,2,2-trifluoroethanol (TFE) or guanidine.HCl). Guanidine.HCl denaturation experiments were performed according to Creighton^105.
# 1D ^1H NMR spectra were then recorded with presaturation and a relaxation delay (d1) of 30 seconds to allow for full relaxation of peptide and DSS^1H signals to facilitate accurate integration of proton signals with S/N>250:1. This method provides reproducible concentrations within ±2%.
# CD data in ellipticity was converted to mean peptide ellipticity using the equation: [θ]=θ/(10×C×Np×1) where θ is the ellipticity in millidegrees, C is the peptide molar concentration (M), 1 is the cell path length (cm), and Np is the number of peptide units (ie. pentapeptides […], 10 & 11 Np=5, 12 Np=4.)
# Relative helicities were employed to allow scaling of compounds by dividing the [θ]obs215(8)/[θ]obs215(x) for pentapeptides, and [θ]obs215(24)/[θ]obs215(x) for hexapeptides.
# [2] = [θ]215 relative to SEQ ID NO: 8, 10 mM phosphate buffer, pH 7.4, 25° C
# [3] = molar elipticity at 190 nm, 10 mM phosphate buffer, pH 7.4, 25° C
# [4] = 10 mM phosphate buffer, pH 7.4, 25° C
# [5] = molar elipticity at 215 nm, 10 mM phosphate buffer, pH 7.4, 25° C
# [6] = ratio of elipticities, 10 mM phosphate buffer, pH 7.4, 25° C
# [7] = cyclic hexapeptides 23-31, 10 mM phosphate buffer pH 7.4 at 25° C
# [8] = θ215 relative to SEQ ID NO: 24, 10 mM phosphate buffer pH 7.4 at 25° C
compound,measurement,setting,value
"CC(=O)N[C@@H](CCCCN)C(=O)N[C@@H](C)C(=O)N[C@@H](CCCNC(=N)N)C(=O)N[C@@H](C)C(=O)N[C@@H](CC(=O)O)C(N)=O [SEQ ID NO: 14, Ac-[KARAD]-NH2] (Ac-KARAD-NH2)","stability to trypsin (starting material left, LCMS)",trypsin,completely hydrolyzed within a few minutes
same,θ222/θ208,[1],0.12
same,[θ]192,[1],−14779 degcm^2dmol^−1residue^−1
same,[θ]208,[1],−5758 degcm^2dmol^−1residue^−1
same,[θ]222,[1],−732 degcm^2dmol^−1residue^−1
same,Relative helicity,[1]; [2],0.04
same,% helicity,[1],0.8%
same,[θ]190,[1]; [3],−7372 deg.cm^2.dmol^−1.residue^−1
same,[θ]207,[1]; [4],−5555 deg.cm^2.dmol^−1.residue^−1
same,[θ]215,[1]; [5],−524 deg.cm^2.dmol^−1.residue^−1
same,θ215/θ207,[1]; [6],0.09
"Ac-(cyclo-2,6)-R[KAQAD]-NH2 (Ac-RKAQAD-NH2; lactam 2-6; SMILES CC(=O)N[C@@H](CCCNC(=N)N)C(=O)N[C@H]1CCCCNC(=O)C[C@@H](C(N)=O)NC(=O)[C@H](C)NC(=O)[C@H](CCC(N)=O)NC(=O)[C@H](C)NC1=O) [SEQ ID NO: 26]",Molar ellipticity at 207 nm,[1]; [7],−12279 deg.cm^2.dmol^−1.residue^−1
same,[θ]190,[1]; [7],36865 deg.cm^2.dmol^−1.residue^−1
same,[θ]215,[1]; [7],−11394 deg.cm^2.dmol^−1.residue^−1
same,θ215/θ207,[1]; [7],0.93
same,percentage helicities,"[1]; equation 2b with k˜4, assuming 8 has 100% helicity",70%
same,Relative helicity,[1]; [8],0.84
"Ac-(cyclo-2,6)-R[KGGGD]-NH2 (Ac-RKGGGD-NH2; lactam 2-6; SMILES CC(=O)N[C@@H](CCCNC(=N)N)C(=O)N[C@H]1CCCCNC(=O)C[C@@H](C(N)=O)NC(=O)CNC(=O)CNC(=O)CNC1=O) [SEQ ID NO: 31]",Molar ellipticity at 207 nm,[1]; [7],−4868 deg.cm^2.dmol^−1.residue^−1
same,[θ]190,[1]; [7],−1593 deg.cm^2.dmol^−1.residue^−1
same,[θ]215,[1]; [7],−2131 deg.cm^2.dmol^−1.residue^−1
same,θ215/θ207,[1]; [7],0.44
same,Relative helicity,[1]; [8],0.14
"Ac-(cyclo-2,6)-R[KGSAD]-NH2 (Ac-RKGSAD-NH2; lactam 2-6; SMILES CC(=O)N[C@@H](CCCNC(=N)N)C(=O)N[C@H]1CCCCNC(=O)C[C@@H](C(N)=O)NC(=O)[C@H](C)NC(=O)[C@H](CO)NC(=O)CNC1=O) [SEQ ID NO: 29]",Molar ellipticity at 207 nm,[1]; [7],−6975 deg.cm^2.dmol^−1.residue^−1
same,[θ]190,[1]; [7],12831 deg.cm^2.dmol^−1.residue^−1
same,[θ]215,[1]; [7],−4810 deg.cm^2.dmol^−1.residue^−1
same,θ215/θ207,[1]; [7],0.69
same,Relative helicity,[1]; [8],0.32
"Ac-(cyclo-2,6)-R[KSSSD]-NH2 (Ac-RKSSSD-NH2; lactam 2-6; SMILES CC(=O)N[C@@H](CCCNC(=N)N)C(=O)N[C@H]1CCCCNC(=O)C[C@@H](C(N)=O)NC(=O)[C@H](CO)NC(=O)[C@H](CO)NC(=O)[C@H](CO)NC1=O) [SEQ ID NO: 30]",Molar ellipticity at 207 nm,[1]; [7],−8017 deg.cm^2.dmol^−1.residue^−1
same,[θ]190,[1]; [7],6827 deg.cm^2.dmol^−1.residue^−1
same,[θ]215,[1]; [7],−4432 deg.cm^2.dmol^−1.residue^−1
same,θ215/θ207,[1]; [7],0.55
same,Relative helicity,[1]; [8],0.30
"Cyclo(6-10, 11-15)-FGGFT[KARKD][KRKLD]-NH2 (FGGFTKARKDKRKLD; bicyclic lactam bridges, C-terminal amide) [SEQ ID NO: 76]",helicity by CD compared to native agonist and antagonist sequences,[1],increase helicity
"Cyclo(6-10, 11-15)-NpheGGFT[KARKD][KRKLD]-NH2 ([NPhGly]GGFTKARKDKRKLD-NH2; lactam 6-10, 11-15; N-terminus assumed; SMILES CC(C)C[C@@H]1NC(=O)[C@H](CCCCN)NC(=O)[C@H](CCCNC(=N)N)NC(=O)[C@@H](NC(=O)[C@@H]2CC(=O)NCCCC[C@H](NC(=O)[C@@H](NC(=O)[C@H](Cc3ccccc3)NC(=O)CNC(=O)CNC(=O)CNc3ccccc3)[C@@H](C)O)C(=O)N[C@@H](C)C(=O)N[C@@H](CCCNC(=N)N)C(=O)N[C@@H](CCCCN)C(=O)N2)CCCCNC(=O)C[C@@H](C(N)=O)NC1=O) [SEQ ID NO: 77]",helicity by CD compared to native agonist and antagonist sequences,[1],increase helicity
"H-(cyclo-1,5)-[KARAD]-NH2 (H-KARAD-NH2; lactam 1-5; SMILES C[C@@H]1NC(=O)[C@H](CCCNC(=N)N)NC(=O)[C@H](C)NC(=O)[C@@H](N)CCCCNC(=O)C[C@@H](C(N)=O)NC1=O) [SEQ ID NO: 21]",Relative helicity,[1]; [2],0.06
same,Relative helicity,"[1]; [θ]215 relative to SEQ ID NO: 8, in 0.001 M NaOH pH 10",0.2
same,[θ]190,[1]; [3],1355 deg.cm^2.dmol^−1.residue^−1
same,[θ]190,"[1]; molar elipticity at 190 nm, in 0.001 M NaOH pH 10",8452 deg.cm^2.dmol^−1.residue^−1
same,[θ]207,[1]; [4],−2228 deg.cm^2.dmol^−1.residue^−1
same,[θ]207,[1]; in 0.001 M NaOH pH 10,−3327 deg.cm^2.dmol^−1.residue^−1
same,[θ]215,[1]; [5],−812 deg.cm^2.dmol^−1.residue^−1
same,[θ]215,"[1]; molar elipticity at 215 nm, in 0.001 M NaOH pH 10",−2590 deg.cm^2.dmol^−1.residue^−1
same,θ215/θ207,[1]; [6],0.36
same,θ215/θ207,"[1]; ratio of elipticities, in 0.001 M NaOH pH 10",0.78
"H-(cyclo-1,5)-[KARAD]-OH (H-KARAD-OH; lactam 1-5; SMILES C[C@@H]1NC(=O)[C@H](CCCNC(=N)N)NC(=O)[C@H](C)NC(=O)[C@@H](N)CCCCNC(=O)C[C@@H](C(=O)O)NC1=O) [SEQ ID NO: 22]",Relative helicity,[1]; [2],0.08
same,[θ]190,[1]; [3],−4966 deg.cm^2.dmol^−1.residue^−1
same,[θ]207,[1]; [4],−5737 deg.cm^2.dmol^−1.residue^−1
same,[θ]215,[1]; [5],−1033 deg.cm^2.dmol^−1.residue^−1
same,θ215/θ207,[1]; [6],0.18
SEQ ID NO: 55: linear peptide Ac(KARAD)n-NH2 where n=3 (Ac-KARADKARADKARAD-NH2),θ222/θ208,[1],0.39
same,[θ]192,[1],−8024 degcm^2dmol^−1residue^−1
same,[θ]208,[1],−9788 degcm^2dmol^−1residue^−1
same,[θ]222,[1],−3852 degcm^2dmol^−1residue^−1
same,% helicity,[1],7%
"cyclo(1-5, 6-10, 11-15)-Ac-[KARADKARADKARAD]-NH2 (Ac-KARADKARADKARAD-NH2; lactam 1-5, 6-10, 11-15; SMILES CC(=O)N[C@H]1CCCCNC(=O)C[C@@H](C(=O)N[C@H]2CCCCNC(=O)C[C@@H](C(=O)N[C@H]3CCCCNC(=O)C[C@@H](C(N)=O)NC(=O)[C@H](C)NC(=O)[C@H](CCCNC(=N)N)NC(=O)[C@H](C)NC3=O)NC(=O)[C@H](C)NC(=O)[C@H](CCCNC(=N)N)NC(=O)[C@H](C)NC2=O)NC(=O)[C@H](C)NC(=O)[C@H](CCCNC(=N)N)NC(=O)[C@H](C)NC1=O) [SEQ ID NO: 47]",θ222/θ208,[1],1.34
same,[θ]192,[1],100811 degcm^2dmol^−1residue^−1
same,[θ]208,[1],−23842 degcm^2dmol^−1residue^−1
same,[θ]222,[1],−31987 degcm^2dmol^−1residue^−1
same,% helicity,[1],88%
